# Target: acetylcholine receptor (Homo sapiens, UniProt P02708)
# Assay: SPR binding affinity (RU) of optimized 5mer/6mer/7mer peptides, Examples 6-7
# Conditions: 6mer-1 Top sequence; SPR; peptides tested at 10 μM
# Method in brief: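 600 peptides per series (5mer, 6mer-1, 6mer-2), made from high- or low-frequency amino acid combinations, are screened by SPR at 10 μM; binding is recorded in RU.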
# Chain of acetylcholine receptor (P02708 21-457): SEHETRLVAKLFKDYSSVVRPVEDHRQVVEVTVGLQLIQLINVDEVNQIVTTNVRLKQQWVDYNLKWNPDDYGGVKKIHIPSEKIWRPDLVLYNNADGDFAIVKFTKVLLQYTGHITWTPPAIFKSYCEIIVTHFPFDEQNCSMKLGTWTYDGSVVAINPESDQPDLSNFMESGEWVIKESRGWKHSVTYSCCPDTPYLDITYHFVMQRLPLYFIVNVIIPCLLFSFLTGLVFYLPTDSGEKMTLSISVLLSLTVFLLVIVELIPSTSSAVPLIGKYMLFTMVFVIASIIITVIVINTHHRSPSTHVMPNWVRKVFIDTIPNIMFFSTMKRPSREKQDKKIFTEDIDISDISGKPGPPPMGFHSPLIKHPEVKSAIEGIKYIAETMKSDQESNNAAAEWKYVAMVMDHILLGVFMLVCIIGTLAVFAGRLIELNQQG
row,Substance,Binding affinity
1,6mer-1-203 (RRQITR),142 Ru
2,6mer-1-204 (KKRQRR),154 Ru
3,6mer-1-205 (KRWRLR),133 Ru
4,6mer-1-206 (RRLQTR),121 Ru
5,6mer-1-207 (KKSQQR),151 Ru
6,6mer-1-208 (KRSIQR),122 Ru
7,6mer-1-209 (RKGYTR),121 Ru
8,6mer-1-211 (KKQLLR),123 Ru
9,6mer-1-212 (RRRICR),148 Ru
10,6mer-1-213 (KRRVRK),127 Ru
11,6mer-1-214 (RRSYCK),139 Ru
12,6mer-1-215 (RKRYSR),136 Ru
13,6mer-1-216 (RKSIQR),148 Ru
14,6mer-1-217 (KRVLQR),135 Ru
15,6mer-1-218 (KKQVTR),126 Ru
16,6mer-1-219 (RRLFCR),121 Ru
17,6mer-1-220 (KRQRQK),148 Ru
18,6mer-1-221 (KKWFQR),148 Ru
19,6mer-1-222 (RRRVRR),145 Ru
20,6mer-1-223 (KKRRRK),133 Ru
21,6mer-1-224 (KRGFLR),142 Ru
22,6mer-1-226 (RRWITR),128 Ru
23,6mer-1-227 (KRLVQK),139 Ru
24,6mer-1-228 (KRVIYK),139 Ru
25,6mer-1-229 (RRRLLR),153 Ru

row,Substance,Binding affinity
1,6mer-1-230 (RKGYCK),128 Ru
2,6mer-1-231 (KRQRTK),136 Ru
3,6mer-1-232 (RRRICK),146 Ru
4,6mer-1-233 (KKWQSR),128 Ru
5,6mer-1-234 (RRGISR),142 Ru
6,6mer-1-235 (KKRYCR),148 Ru
7,6mer-1-236 (RKLISR),151 Ru
8,6mer-1-237 (RKSRYK),137 Ru
9,6mer-1-238 (KKGQQK),154 Ru
10,6mer-1-239 (RKVLCR),136 Ru
11,6mer-1-240 (RRSRRR),148 Ru
12,6mer-1-241 (RRLYYK),148 Ru
13,6mer-1-242 (KRQYLK),148 Ru
14,6mer-1-243 (KKWYLR),136 Ru
15,6mer-1-244 (RRRVQK),144 Ru
16,6mer-1-245 (RRGFRR),142 Ru
17,6mer-1-246 (RRLVSR),122 Ru
18,6mer-1-247 (KKVRQK),122 Ru
19,6mer-1-248 (RRLIYK),151 Ru
20,6mer-1-249 (RKGVSR),142 Ru
21,6mer-1-250 (RRVICR),142 Ru
22,6mer-1-251 (RKVQSK),133 Ru
23,6mer-1-252 (RRWIRR),131 Ru
24,6mer-1-253 (RRVQLK),145 Ru
25,6mer-1-254 (RKSLSK),137 Ru

row,Substance,Binding affinity
1,6mer-1-255 (KKGFQK),139 Ru
2,6mer-1-256 (KRVRTK),125 Ru
3,6mer-1-257 (RKWVTR),124 Ru
4,6mer-1-258 (KKLQYK),137 Ru
5,6mer-1-259 (KRRYRK),141 Ru
6,6mer-1-260 (RKQRTK),141 Ru
7,6mer-1-261 (KRWVTR),121 Ru
8,6mer-1-262 (RKQLQR),139 Ru
9,6mer-1-263 (RKSYTK),146 Ru
10,6mer-1-264 (RRQYQR),128 Ru
11,6mer-1-265 (RKSVCR),145 Ru
12,6mer-1-266 (KKGRLK),144 Ru
13,6mer-1-267 (KRRLLR),139 Ru
14,6mer-1-268 (KRRQSK),144 Ru
15,6mer-1-269 (RKRRQR),142 Ru
16,6mer-1-270 (KRGLRR),149 Ru
17,6mer-1-271 (RRQVSK),122 Ru
18,6mer-1-272 (KKQVSR),139 Ru
19,6mer-1-273 (KKQVSK),137 Ru
20,6mer-1-275 (RKRVLK),123 Ru
21,6mer-1-276 (RRVICK),128 Ru
22,6mer-1-277 (KKGLCR),141 Ru
23,6mer-1-278 (KRQQTR),142 Ru
24,6mer-1-279 (RRLRYR),145 Ru
25,6mer-1-280 (RKLQCK),149 Ru

row,Substance,Binding affinity
1,6mer-1-281 (KRLLCR),154 Ru
2,6mer-1-282 (RRRRYR),121 Ru
3,6mer-1-283 (KKWVQK),133 Ru
4,6mer-1-284 (KRSRQK),145 Ru
5,6mer-1-285 (KRWVQR),122 Ru
6,6mer-1-286 (RKLISK),139 Ru
7,6mer-1-287 (RKWLTR),136 Ru
8,6mer-1-288 (KKVQQR),148 Ru
9,6mer-1-289 (RKRYYR),153 Ru
10,6mer-1-290 (RKQLTK),146 Ru
11,6mer-1-291 (KKQIRK),142 Ru
12,6mer-1-292 (RKWQTK),122 Ru
13,6mer-1-293 (RKRVCK),154 Ru
14,6mer-1-294 (KKLYRR),123 Ru
15,6mer-1-295 (KRQRCR),148 Ru
16,6mer-1-296 (RKSIRR),121 Ru
17,6mer-1-297 (RRGFSK),139 Ru
18,6mer-1-298 (KKLYCK),147 Ru
19,6mer-1-299 (KRWLSK),139 Ru
20,6mer-1-300 (RRWQQK),148 Ru
21,6mer-1-301 (RRSILR),154 Ru
22,6mer-1-302 (RRGQSR),151 Ru
23,6mer-1-303 (RKQYCK),123 Ru
24,6mer-1-304 (RKLYSR),121 Ru
25,6mer-1-305 (RKWISR),153 Ru

row,Substance,Binding affinity
1,6mer-1-306 (KKLFYR),135 Ru
2,6mer-1-307 (KRWYRR),153 Ru
3,6mer-1-308 (KRRITR),135 Ru
4,6mer-1-309 (KKGICK),153 Ru
5,6mer-1-310 (RKRQLK),127 Ru
6,6mer-1-311 (RRGYQK),127 Ru
7,6mer-1-312 (KKSRQK),151 Ru
8,6mer-1-313 (RRWFCK),148 Ru
9,6mer-1-314 (RRRILR),141 Ru
10,6mer-1-315 (RKQQTK),128 Ru
11,6mer-1-316 (RKQIRK),145 Ru
12,6mer-1-317 (KRSFRR),148 Ru
13,6mer-1-318 (KKSRRK),145 Ru
14,6mer-1-319 (KRWVQK),123 Ru
15,6mer-1-320 (KRVQYR),121 Ru
16,6mer-1-321 (RKQVRR),154 Ru
17,6mer-1-322 (KRGVQR),146 Ru
18,6mer-1-323 (RRWLYR),149 Ru
19,6mer-1-324 (RRLQRR),128 Ru
20,6mer-1-325 (RRQIQR),142 Ru
21,6mer-1-326 (RKWIYK),136 Ru
22,6mer-1-327 (KRGITR),139 Ru
23,6mer-1-328 (KRWLQK),151 Ru

# Same assay, conditions: SPR, peptides tested at 10 μM; 6mer-1 Top sequence (top combinations)
row,Substance,Binding affinity
1,6mer-1-167 (RRRYQR),122 Ru
2,6mer-1-168 (KRWFCK),131 Ru
3,6mer-1-169 (RRQQSK),153 Ru
4,6mer-1-170 (RKSFYR),148 Ru
5,6mer-1-171 (RKQFQK),123 Ru
6,6mer-1-172 (RRLIRK),153 Ru
7,6mer-1-173 (RKQYYR),123 Ru
8,6mer-1-174 (KKGVCR),154 Ru
9,6mer-1-175 (RRRIQK),137 Ru
10,6mer-1-176 (KKVYCK),121 Ru
11,6mer-1-177 (KRGYRR),121 Ru
12,6mer-1-178 (RKRYQK),139 Ru
13,6mer-1-179 (KRSQYR),148 Ru
14,6mer-1-180 (RKLVRK),146 Ru
15,6mer-1-181 (KKGVLR),148 Ru
16,6mer-1-182 (KRGICK),147 Ru
17,6mer-1-183 (KKGQTR),121 Ru
18,6mer-1-184 (KRQICR),139 Ru

row,Substance,Binding affinity
1,6mer-1-185 (KRQLRK),153 Ru
2,6mer-1-186 (RRRVYK),147 Ru
3,6mer-1-187 (RKLFYK),139 Ru
4,6mer-1-188 (RKSLQK),122 Ru
5,6mer-1-189 (KKSYSK),137 Ru
6,6mer-1-190 (RKLYYR),153 Ru
7,6mer-1-191 (KKQILK),139 Ru
8,6mer-1-192 (KRQYQR),127 Ru
9,6mer-1-193 (KRVQLK),149 Ru
10,6mer-1-194 (RKWQRR),144 Ru
11,6mer-1-195 (KRGISR),122 Ru
12,6mer-1-196 (RKWRRK),142 Ru
13,6mer-1-197 (RRSIRR),139 Ru
14,6mer-1-198 (KRLFCR),148 Ru
15,6mer-1-199 (KKQVQK),151 Ru
16,6mer-1-200 (RKLYQR),142 Ru
17,6mer-1-201 (RRRIQR),151 Ru
18,6mer-1-202 (RRQLTK),154 Ru

# Reference: patent publication US20250011363A1, “OPTIMIZED SHORTENED PEPTIDE THAT BINDS TO ACETYLCHOLINE RECEPTOR, AND USE THEREOF” (SKINMED CO., LTD., priority 2021, published 2025)
